What was measured:
[1] = molecular target: SENP3-Flag (human SENP3 with C-terminal Flag epitope) (human, UniProt Q9H4L4 1-574, limits assumed); test: Flag immunoprecipitation of DUBs from 293T cells cotransfected with ID2, MG-132 treated (FIG. 2B)
Method: (§1) FIG. 2. […] (A) Western blot (WB) analysis of 293T transfected with Flag-tagged deubiquitinases (DUBs) or an empty vector (−). Where indicated, cells were treated with […] MG-132 for 4 hr. (B) Flag-tagged DUBs were immunoprecipitated (IP) from 293T cells cotransfected with ID2 and treated with […] MG-132 for 6 hr.

[2] = molecular target: T1, USP37-Flag (human USP37 with C-terminal Flag epitope) (human, UniProt Q86T82 1-979, limits assumed); test: as above
T1 sequence (looked up): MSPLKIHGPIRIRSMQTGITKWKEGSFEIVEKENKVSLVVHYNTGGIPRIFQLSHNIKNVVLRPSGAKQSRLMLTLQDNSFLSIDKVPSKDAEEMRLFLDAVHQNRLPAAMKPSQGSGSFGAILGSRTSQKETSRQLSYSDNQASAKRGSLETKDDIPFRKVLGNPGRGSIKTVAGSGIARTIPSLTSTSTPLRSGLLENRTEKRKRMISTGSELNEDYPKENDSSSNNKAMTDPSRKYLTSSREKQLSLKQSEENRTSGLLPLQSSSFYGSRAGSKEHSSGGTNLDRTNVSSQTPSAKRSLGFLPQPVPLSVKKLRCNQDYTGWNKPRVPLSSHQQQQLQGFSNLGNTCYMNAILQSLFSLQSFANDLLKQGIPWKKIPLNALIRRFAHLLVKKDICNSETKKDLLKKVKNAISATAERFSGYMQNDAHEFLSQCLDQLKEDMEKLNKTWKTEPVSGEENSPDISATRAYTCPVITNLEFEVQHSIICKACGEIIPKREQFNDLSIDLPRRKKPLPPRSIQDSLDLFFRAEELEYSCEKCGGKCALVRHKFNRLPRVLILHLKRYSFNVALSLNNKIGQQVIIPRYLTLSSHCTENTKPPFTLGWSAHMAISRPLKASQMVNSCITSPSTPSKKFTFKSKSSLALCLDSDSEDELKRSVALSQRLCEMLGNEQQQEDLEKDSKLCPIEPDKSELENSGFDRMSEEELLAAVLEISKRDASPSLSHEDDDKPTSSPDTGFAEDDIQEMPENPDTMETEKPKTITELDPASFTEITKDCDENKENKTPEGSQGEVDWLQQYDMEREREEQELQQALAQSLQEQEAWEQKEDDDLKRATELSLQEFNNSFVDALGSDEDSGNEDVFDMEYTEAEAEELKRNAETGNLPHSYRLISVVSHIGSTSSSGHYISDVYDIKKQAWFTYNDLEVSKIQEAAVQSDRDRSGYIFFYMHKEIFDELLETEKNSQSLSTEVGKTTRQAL
Method: as §1

[3] = molecular target: T2, USP45-Flag (human USP45 with C-terminal Flag epitope) (human, UniProt Q70EL2 1-814, limits assumed); test: as above
T2 sequence (looked up): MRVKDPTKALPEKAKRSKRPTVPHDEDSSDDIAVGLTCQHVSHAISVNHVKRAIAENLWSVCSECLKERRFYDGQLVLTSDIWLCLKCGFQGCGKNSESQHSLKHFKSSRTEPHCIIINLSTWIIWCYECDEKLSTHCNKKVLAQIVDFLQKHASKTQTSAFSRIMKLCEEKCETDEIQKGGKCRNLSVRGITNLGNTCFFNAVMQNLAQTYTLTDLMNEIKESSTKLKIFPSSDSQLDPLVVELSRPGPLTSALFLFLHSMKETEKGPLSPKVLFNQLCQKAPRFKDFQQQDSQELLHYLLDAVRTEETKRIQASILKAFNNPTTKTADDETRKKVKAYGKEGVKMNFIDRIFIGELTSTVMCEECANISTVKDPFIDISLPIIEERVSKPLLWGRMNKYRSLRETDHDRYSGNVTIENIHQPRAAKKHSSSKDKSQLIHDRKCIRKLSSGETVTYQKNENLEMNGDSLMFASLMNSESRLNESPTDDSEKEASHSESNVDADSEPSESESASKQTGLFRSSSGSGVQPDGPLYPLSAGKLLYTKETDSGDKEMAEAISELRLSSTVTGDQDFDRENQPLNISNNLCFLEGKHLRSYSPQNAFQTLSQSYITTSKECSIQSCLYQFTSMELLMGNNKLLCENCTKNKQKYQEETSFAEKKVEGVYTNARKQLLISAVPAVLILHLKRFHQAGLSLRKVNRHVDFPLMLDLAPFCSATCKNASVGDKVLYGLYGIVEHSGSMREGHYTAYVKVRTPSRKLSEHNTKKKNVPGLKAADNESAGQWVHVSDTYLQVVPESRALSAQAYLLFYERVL
Method: as §1

[4] = molecular target: T3, USP1-Flag (wild-type human USP1 with in-frame C-terminal Flag epitope) (human, UniProt O94782 1-785); test: Flag immunoprecipitation of DUBs from 293T cells cotransfected with ID2, MG-132 treated; blot for ID2 (FIG. 2B)
T3 construct: Synthesised human USP1 cDNA in pRK2001, expressed in 293T cells; also called USP1 wild-type; WT
T3 sequence: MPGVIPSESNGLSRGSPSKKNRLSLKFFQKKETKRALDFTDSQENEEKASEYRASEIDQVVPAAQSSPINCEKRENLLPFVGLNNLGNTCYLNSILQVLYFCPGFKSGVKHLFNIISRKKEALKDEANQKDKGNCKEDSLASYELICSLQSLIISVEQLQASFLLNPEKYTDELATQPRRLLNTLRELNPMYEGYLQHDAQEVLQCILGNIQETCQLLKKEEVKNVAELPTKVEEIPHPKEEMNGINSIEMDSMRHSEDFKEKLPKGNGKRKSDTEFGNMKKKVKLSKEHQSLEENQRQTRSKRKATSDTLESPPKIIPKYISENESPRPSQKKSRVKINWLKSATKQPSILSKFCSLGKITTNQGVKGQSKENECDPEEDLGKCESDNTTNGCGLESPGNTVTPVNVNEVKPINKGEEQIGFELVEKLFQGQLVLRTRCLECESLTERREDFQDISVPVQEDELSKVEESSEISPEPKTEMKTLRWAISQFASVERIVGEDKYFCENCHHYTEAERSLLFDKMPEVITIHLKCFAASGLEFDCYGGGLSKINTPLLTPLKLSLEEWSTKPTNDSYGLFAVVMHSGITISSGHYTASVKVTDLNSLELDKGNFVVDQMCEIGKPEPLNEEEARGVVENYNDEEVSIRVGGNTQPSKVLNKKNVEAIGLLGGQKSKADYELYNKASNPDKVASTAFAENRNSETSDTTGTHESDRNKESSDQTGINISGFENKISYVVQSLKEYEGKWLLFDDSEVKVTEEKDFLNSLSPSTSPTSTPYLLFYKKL
Method: as §1

Chain of SENP3-Flag (human SENP3 with C-terminal Flag epitope) (Q9H4L4 whole entry): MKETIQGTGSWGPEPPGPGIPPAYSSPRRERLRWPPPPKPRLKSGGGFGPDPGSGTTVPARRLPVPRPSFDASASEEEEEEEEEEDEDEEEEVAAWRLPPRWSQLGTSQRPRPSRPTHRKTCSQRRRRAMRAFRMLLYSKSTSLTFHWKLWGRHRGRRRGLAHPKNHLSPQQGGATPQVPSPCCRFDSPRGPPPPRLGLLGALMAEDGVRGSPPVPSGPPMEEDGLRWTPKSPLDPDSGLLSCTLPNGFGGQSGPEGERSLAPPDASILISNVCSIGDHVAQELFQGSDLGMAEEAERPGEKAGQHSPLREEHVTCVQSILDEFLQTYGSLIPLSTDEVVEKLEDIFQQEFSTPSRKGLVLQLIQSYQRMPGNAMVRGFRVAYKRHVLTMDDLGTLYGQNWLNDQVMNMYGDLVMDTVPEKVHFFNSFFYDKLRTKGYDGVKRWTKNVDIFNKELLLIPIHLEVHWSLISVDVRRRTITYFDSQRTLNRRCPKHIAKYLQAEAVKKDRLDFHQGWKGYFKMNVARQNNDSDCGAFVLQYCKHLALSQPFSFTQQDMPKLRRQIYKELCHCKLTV

B1: ID2 (co-transfected / co-expressed in 293T cells) (other)
chain: MKAFSPVRSVRKNSLSDHSLGISRSKTPVDDPMSLLYNMNDCYSKLKELVPSIPQNKKVSKMEILQHVIDYILDLQIALDSHPTIVSLHHQRPGQNQASRTPLTTLNTDISILSLQASEFPSELMSNDSKALCG
notes: ID2 was amplified from Jurkat-derived cDNA; The methods describe only a C-terminal Flag version in pRK2001
[1]
  binding result: no binding
[2]
  binding result: no binding
[3]
  binding result: no binding
[4]
  binding result: binds

Source: patent US20140199327A1, “METHODS OF PROMOTING DIFFERENTIATION” (Genentech, Inc., priority 2011, published 2014)
